This is an account of results in patent publication US20090092595A1, “Suppression of sPLA2-integrin binding for treating an inflammatory condition” (REGENTS OF THE UNIVERSITY OF CALIFORNIA, priority 2007, published 2009).

The conditions of test [1]: Bradley et al. 2005; cited from earlier work.
The conditions of test [2]: Bowton et al. 2005; cited from earlier work.
In test [3] the target is T1, soluble integrin αvβ3 (Homo sapiens, UniProt P05106+P06756).
T1 construct: Recombinant soluble αvβ3 was synthesized as previously described; made in house
The test can be described thus: Binding of soluble αvβ3 to immobilized sPLA2-IIA (ELISA-type assay). The conditions noted are these: immobilized protein, 20 μg/ml coating. The protocol:
Binding of soluble αvβ3 to immobilized sPLA2-IIA sPLA2-IIA was immobilized to wells of 96 well microtiter plates and the remaining protein-binding sites were blocked by BSA as described (Mori, S. et al., J Biol Chem, 283:18066-18075 (2008)). Soluble recombinant αvβ3 at 5 μg/ml in Hepes-Tyrodes buffer supplemented with 1 mM MnCl2 was added to the well and incubated for 2 h. Bound αvβ3 was measured using anti-integrin β3 (mAb AV-10) followed by HRP-conjugated goat anti-mouse IgG and peroxidase substrates.

In test [4] the target is integrin αvβ3 on CHO cells expressing recombinant αvβ3 (β3-CHO) and on proteoglycan-deficient pgs745 cells (β3-745) (human) (UniProt P05106). The test can be described thus: cell adhesion to coated sPLA2-IIA, 7E3 at 10 µg/ml in the medium; about the background level.
In test [5] the target is T2, integrin α4β1 (Homo sapiens, UniProt P05556+P13612).
T2 construct: K562 cells have endogenous α5β1; expressed in transfected cells; host or cells: K562
The test can be described thus: Adhesion of α4-K562 cells (recombinant α4β1) to immobilized sPLA2-IIA. Format: cell-based. The note with it: data not shown. The protocol:
FIG. 5. sPLA2-IIA binding to integrin α4β1. a) Cells expressing recombinant α4β1 adhered to wt sPLA2-IIA better than cells expressing other recombinant integrins. We used transfected K562 cells clonally express different human integrins for adhesion assays. Low background adhesion to BSA was subtracted. […] Wells of 96-well microtiter plate were coated with VCAM-1 and FN-GST, and incubated with U937 cells (1×10^4 cells/plate) in the presence of the increasing concentrations of sPLA2-IIA for 1 h at 37° C. Adherent cells were quantified using endogenous phosphatase after gently rinsing the well to remove unbound cells. Data is shown as means+/−SEM of triplicate experiments. *P=0.0101 and **P<0.0001 by t-test. c) Amino acid sequence in the α4 subunit that is critical for VCAM-1 and CS-1 binding is also critical for sPLA2-IIA binding. CHO cells that clonally express wt or mutant α4 (Irie, A. et al., Embo J, 14(22): 5550-5556 (1995)) were used for adhesion assays. Data is shown as means+/−SEM of triplicate experiments. Similar results were obtained using K562 cells expressing α4 mutants (not shown).
Other methods We performed docking simulation of interaction between sPLA2-IIA and integrin αvβ3 using the AutoDock3 as previously described (Mori, S. et al., J Biol Chem, in press (2008)). […]

In test [6] the target is T3, recombinant soluble integrin αvβ3 (UniProt P06756 31-992; P05106 27-718).
T3 construct: Soluble heterodimer; whole entries named only; also called soluble αvβ3; soluble recombinant αvβ3
In words: SPR (Biacore), soluble αvβ3 amine-coupled to CM5 chip, mutant injected, 1 mM Mn2+, 1:1 binding with drifting baseline model. (In general: Surface plasmon resonance follows binding to a sensor surface in real time, without labels.)
Experimental: The mutant proteins were tested for binding to soluble integrin αvβ3.
Surface plasmon resonance study Recombinant soluble integrin αvβ3 was immobilized to Biacore Sensor chip CM5 (Biacore, Piscataway, N.J.) by the standard amine coupling method. […] Then the sensor chip was washed with the running buffer alone at the same flow rate for another 5 min (the dissociation phase). Two consecutive one-minute injections of 0.5 M, pH 8 EDTA solution at the same flow rate were used to regenerate the chip for another cycle of injection. The resonance unit elicited from the reference flow cell was subtracted from the resonance unit elicited from the integrin flow cell to eliminate the non-specific protein-flow cell interaction and the bulk refractive index effect. The recorded binding curves were fitted with the “1:1 binding with drifting baseline model” by using the Biaevaluation Version 4.1.

In test [7] the test system is U937 human monocytic lymphoma cells. The test can be described thus: Proliferation of U937 cells (MTS assay). Format: cell-based. The conditions noted are these: serum-starved 48 h, treated 48 h. The protocol: (§1) U937 cells (αvβ3+, α4β1+) were plated in wells of 96-well plates (10,000 cells/well), and serum-starved for 48 h. After treatment with wt or mutant sPLA2-IIA for 48 h, we measured cell proliferation by MTS assays. […] U937 cells were serum-starved for 24 h, and stimulated with wt and mutant sPLA2-IIA (0.5 μg/ml) for 10 min at 37° C. Cell lysates were analyzed by western blotting with anti-phospho ERK1/2 or anti-ERK1/2 antibodies. The blot is representative of three independent experiments.
(§2) Cell proliferation and MAP kinase activation K562 cells and human monocytic lymphoma U937 cells were maintained in RPM11640 medium supplemented with 10% FCS. Cells were plated in 96-well plates (1×10^4 cells/well), and serum-starved for 48 h at 37° C. in 5% CO2 atmosphere. Cells were then treated with or without sPLA2-IIA in medium without serum for 48 h. Cell proliferation was determined by MTS assays using the Aqueous Cell Proliferation Assay Kit (Promega). For MAP kinase activation assays, cells were serum starved in RPMI1640 medium supplemented with 0.4% FCS for 24 h, and stimulated with Wt and mutant sPLA2-IIA (0.5 μg/ml) for 10 min at 37° C. ERK1/2 activation was measured as described (Mori, S. et al., J Biol Chem, in press (2008)).
(In general: Tetrazolium assays rely on reduction of a dye to a coloured formazan, in cell work by metabolically active cells.)

Test [8] concerns ERK1/2. The test can be described thus: MAP kinase (ERK1/2) activation in U937 cells, western blotting. Format: cell-based, human. The conditions noted are these: 0.5 μg/ml, 10 min, 37° C. The protocol:
as §1, §2
(Immunoblotting shows a protein as a band on a membrane.)

Test [9] has as its system αvβ3-K562 cells. The test can be described thus: Proliferation of αvβ3-K562 cells (MTS assay). The note with it: serum-starved 48 h, stimulated 48 h. Format: cell-based, human. The protocol:
(§3) Cells were serum-starved for 48 h and stimulated with sPLA2-IIA for 48 h. Cell proliferation was determined by MTS assays. Data is shown as means+/−SEM of triplicate experiments. α4- and αvβ3-K562 cells proliferated faster than mock-K562 cells. […] Serum-starved cells were stimulated with wt or mutant sPLA2-IIA (0.5 μg/ml) for 48 h. Data is shown as means+/−SEM of triplicate experiments. α4-K562 and αvβ3-K562 cells grew faster than mock K562 cells with wt and H47Q sPLA2-IIA (*P<0.05 by t-test).
as §2

Test [10] concerns α4-K562 cells. The test can be described thus: Proliferation of α4-K562 cells (MTS assay). The note with it: serum-starved 48 h, stimulated 48 h. Format: cell-based, human. The protocol: as §3, §2
Test [11] in a line: PLA2 activity by arachidonoyl-Thio-PC hydrolysis. The conditions noted are these: effect of mutation on catalytic activity. Format: biochemical. The protocol:
Other methods We performed docking simulation of interaction between sPLA2-IIA and integrin αvβ3 using the AutoDock3 as previously described (Mori, S. et al., J Biol Chem, in press (2008)). Adhesion assays were performed as described previously (Eto, K. et al., J. Biol. Chem., 277:17804-17810 (2002)). mAb 7E3 was used at 10 μg/ml. We assayed PLA2 activity by arachidonoyl-Thio-PC hydrolysis (Cayman Chemicals, Ann Arbor, Mich.) as described (Reynolds, L. J. et al., Anal. Biochem., 217:25-32 (1994)).

T1 sequence (P06756 31-992 limits assumed): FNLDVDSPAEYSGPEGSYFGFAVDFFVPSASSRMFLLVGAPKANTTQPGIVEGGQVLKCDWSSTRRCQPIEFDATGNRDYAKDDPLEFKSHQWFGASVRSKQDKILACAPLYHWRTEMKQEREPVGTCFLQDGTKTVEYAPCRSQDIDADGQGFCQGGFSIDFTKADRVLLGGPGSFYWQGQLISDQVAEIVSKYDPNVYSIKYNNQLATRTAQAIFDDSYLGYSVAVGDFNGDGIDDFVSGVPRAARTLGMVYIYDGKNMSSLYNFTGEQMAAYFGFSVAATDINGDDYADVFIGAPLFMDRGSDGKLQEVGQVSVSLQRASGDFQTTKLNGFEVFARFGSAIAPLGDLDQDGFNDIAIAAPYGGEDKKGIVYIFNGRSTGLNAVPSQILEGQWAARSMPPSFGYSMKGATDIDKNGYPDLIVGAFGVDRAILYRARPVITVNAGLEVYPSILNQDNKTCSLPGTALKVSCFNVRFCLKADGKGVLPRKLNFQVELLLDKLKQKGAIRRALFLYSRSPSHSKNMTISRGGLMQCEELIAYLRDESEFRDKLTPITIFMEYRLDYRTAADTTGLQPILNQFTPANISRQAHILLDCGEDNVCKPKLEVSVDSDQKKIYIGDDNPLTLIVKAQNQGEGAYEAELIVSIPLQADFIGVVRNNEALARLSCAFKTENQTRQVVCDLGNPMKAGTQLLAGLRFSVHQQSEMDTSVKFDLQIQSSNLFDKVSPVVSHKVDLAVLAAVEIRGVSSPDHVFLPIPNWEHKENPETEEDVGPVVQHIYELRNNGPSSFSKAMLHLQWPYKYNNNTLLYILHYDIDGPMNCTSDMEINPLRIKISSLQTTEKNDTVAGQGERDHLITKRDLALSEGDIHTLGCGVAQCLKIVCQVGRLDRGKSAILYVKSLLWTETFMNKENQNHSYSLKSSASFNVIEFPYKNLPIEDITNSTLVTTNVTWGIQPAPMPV
T1 sequence (P05106 27-718 limits assumed): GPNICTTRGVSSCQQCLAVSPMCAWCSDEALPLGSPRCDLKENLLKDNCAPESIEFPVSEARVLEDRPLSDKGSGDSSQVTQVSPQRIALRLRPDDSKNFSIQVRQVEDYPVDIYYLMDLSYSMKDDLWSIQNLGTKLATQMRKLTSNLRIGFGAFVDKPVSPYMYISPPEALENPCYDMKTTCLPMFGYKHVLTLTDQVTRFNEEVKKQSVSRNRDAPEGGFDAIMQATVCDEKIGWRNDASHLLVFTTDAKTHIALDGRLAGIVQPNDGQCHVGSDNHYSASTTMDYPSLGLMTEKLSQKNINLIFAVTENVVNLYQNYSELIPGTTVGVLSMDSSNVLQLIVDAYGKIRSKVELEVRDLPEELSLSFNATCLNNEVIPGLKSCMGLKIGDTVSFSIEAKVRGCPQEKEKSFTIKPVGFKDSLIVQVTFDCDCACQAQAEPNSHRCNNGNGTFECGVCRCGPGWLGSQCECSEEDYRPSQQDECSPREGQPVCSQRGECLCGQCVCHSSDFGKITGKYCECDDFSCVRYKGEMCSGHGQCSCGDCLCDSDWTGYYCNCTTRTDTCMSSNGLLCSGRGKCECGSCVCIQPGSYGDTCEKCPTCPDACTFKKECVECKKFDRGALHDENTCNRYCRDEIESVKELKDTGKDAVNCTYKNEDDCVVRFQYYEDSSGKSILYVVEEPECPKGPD
T3 sequence (P06756 31-992, chain 1 of 2): as the sequence (P06756 31-992 limits assumed) above
T3 sequence (P05106 27-718, chain 2 of 2): as the sequence (P05106 27-718 limits assumed) above
T2 sequence (P13612 34-1032): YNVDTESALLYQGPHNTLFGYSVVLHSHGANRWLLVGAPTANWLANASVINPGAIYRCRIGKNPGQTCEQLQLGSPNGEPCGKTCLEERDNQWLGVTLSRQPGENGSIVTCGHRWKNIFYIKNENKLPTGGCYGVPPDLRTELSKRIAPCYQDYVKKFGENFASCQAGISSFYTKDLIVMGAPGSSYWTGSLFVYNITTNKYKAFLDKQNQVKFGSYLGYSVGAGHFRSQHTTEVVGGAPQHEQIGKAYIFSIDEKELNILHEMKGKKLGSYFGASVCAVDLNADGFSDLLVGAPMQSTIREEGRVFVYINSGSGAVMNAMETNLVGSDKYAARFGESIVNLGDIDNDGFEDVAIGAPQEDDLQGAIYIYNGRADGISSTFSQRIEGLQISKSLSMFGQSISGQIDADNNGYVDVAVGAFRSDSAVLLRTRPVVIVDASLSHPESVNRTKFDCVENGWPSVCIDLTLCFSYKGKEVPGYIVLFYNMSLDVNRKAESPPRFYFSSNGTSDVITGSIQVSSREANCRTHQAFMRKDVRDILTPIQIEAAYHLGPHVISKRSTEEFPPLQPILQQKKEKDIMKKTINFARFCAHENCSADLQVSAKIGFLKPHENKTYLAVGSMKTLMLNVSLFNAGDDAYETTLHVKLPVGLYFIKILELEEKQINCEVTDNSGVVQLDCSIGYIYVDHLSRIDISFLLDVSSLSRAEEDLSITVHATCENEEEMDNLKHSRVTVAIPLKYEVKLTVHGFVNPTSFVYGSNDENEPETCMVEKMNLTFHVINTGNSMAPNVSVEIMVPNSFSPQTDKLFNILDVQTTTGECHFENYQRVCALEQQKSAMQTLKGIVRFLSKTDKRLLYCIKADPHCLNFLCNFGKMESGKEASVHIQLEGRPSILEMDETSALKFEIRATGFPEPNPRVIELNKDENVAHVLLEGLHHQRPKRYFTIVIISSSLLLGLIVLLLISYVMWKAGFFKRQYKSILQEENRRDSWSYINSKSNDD
T2 sequence (P05556 21-798): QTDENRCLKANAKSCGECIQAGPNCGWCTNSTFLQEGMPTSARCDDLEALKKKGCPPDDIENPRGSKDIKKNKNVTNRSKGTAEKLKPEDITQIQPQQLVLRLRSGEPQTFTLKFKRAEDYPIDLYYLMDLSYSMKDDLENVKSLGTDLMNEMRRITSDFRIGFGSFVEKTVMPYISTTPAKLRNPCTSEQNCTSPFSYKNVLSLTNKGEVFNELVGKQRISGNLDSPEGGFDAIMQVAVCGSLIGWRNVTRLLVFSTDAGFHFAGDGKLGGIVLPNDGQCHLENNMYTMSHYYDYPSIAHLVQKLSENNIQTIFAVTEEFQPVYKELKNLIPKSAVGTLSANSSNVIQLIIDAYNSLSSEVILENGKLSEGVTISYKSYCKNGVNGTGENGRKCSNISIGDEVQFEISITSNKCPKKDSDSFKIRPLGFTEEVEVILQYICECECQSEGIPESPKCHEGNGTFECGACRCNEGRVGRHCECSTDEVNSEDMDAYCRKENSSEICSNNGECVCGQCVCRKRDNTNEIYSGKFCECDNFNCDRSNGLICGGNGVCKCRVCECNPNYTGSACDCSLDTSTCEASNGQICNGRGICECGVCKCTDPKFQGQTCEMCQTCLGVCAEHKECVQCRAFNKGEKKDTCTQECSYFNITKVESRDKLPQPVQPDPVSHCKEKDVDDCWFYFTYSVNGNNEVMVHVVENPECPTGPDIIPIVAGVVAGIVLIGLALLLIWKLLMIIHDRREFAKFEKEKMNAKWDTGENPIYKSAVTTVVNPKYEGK
Chain of integrin αvβ3 on CHO cells expressing recombinant αvβ3 (β3-CHO) and on proteoglycan-deficient pgs745 cells (β3-745) (human) (P05106 27-788): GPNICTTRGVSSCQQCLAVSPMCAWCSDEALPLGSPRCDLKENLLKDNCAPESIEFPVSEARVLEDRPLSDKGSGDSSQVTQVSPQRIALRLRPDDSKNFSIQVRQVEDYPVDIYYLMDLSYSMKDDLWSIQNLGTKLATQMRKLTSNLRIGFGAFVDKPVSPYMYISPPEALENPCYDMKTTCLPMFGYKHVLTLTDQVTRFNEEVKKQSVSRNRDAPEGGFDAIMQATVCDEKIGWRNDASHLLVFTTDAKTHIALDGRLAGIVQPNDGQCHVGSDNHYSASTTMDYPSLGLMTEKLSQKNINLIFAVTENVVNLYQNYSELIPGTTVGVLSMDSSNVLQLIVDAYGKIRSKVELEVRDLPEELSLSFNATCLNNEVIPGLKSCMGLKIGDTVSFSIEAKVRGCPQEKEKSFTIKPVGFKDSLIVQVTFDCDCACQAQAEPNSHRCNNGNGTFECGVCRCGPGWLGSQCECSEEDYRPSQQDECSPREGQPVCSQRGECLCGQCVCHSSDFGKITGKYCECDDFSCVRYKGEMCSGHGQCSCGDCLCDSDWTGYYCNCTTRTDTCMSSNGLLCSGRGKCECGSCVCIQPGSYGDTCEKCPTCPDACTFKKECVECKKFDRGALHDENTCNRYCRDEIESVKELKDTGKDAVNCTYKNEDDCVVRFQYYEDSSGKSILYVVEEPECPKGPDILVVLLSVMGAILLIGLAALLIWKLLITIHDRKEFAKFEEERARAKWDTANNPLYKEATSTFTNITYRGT

With `CCc1c(C(=O)C(N)=O)c2c(OCC(=O)OC)cccc2n1Cc1ccccc1` [S-3013/LY333013], the “therapeutic effect in rheumatoid arthritis” value in [1] was “failed to demonstrate a significant therapeutic effect”. In addition, the “therapeutic effect in asthma” value in test [2] is “failed to demonstrate a significant therapeutic effect”.

“disintegrin domain of ADAM15: a known αvβ3 ligand, positive control [reference compound]”: the “binding to soluble αvβ3” value in test [3] is recorded as “bound”.

Turning to `CCc1c(C(=O)C(N)=O)c2c(OCC(=O)[O-])cccc2n1Cc1ccccc1.[Na+]` [S-5920/LY315920Na], in test [1], the “therapeutic effect in rheumatoid arthritis” value was “failed to demonstrate a significant therapeutic effect”. In [2], the “therapeutic effect in asthma” value is listed as “failed to demonstrate a significant therapeutic effect”.

As for “mAb 7E3 (specific to human β3 subunit, function blocking) (antibody)”, in test [4], the adhesion of β3-CHO cells to immobilized sPLA2-IIA in the presence of the antibody (%) is 30%.

On to `Cc1ccccc1NC(=O)Nc1ccc(CC(=O)N[C@@H](CCCCNC(=O)/C=C/c2cccnc2)C(=O)N[C@@H](CCCC(=O)O)C(=O)NC2(C(N)=O)CCCCC2)cc1` [LLP2A, reference compound], for which the “blocking of α4β1 binding to sPLA2-IIA in transfected K562 cells” value in test [5] is on record as “did not block”.

B1: sPLA2-IIA H47Q mutant (catalytically inactive) (enzyme, human, UniProt P14555 21-144, looked up)
chain: NLVNFHRMIKLTTGKEAALSYGFYGCHCGVGGRGSPKDATDRCCVTQDCCYKRLEKRGCGTKFLSYKFSNSGSRITCAKQDSCRSQLCECDKAAATCFARNKTTYNKKYQYYSNKHCRGSTPRC
notes: mature; the printed positions appear to count on the mature protein, not on the precursor entry P14555; also called H47Q sPLA2-IIA; not shown: N-terminal vector-encoded residues with His tag from the PET28a/amp vector
What is called Kd is the concentration at which binding is half-saturated. Consider B1, for which the Kd in test [6] is 44.7 nM.

B2: R100E: sPLA2-IIA mutant, Arg-100 mutated to Glu (protein)
chain: NLVNFHRMIKLTTGKEAALSYGFYGCHCGVGGRGSPKDATDRCCVTHDCCYKRLEKRGCGTKFLSYKFSNSGSRITCAKQDSCRSQLCECDKAAATCFAENKTTYNKKYQYYSNKHCRGSTPRC
modifications: left off: small tags and cut ends
notes: sPLA2-IIA mutant, Arg-100 mutated to Glu
As for B2, in test [3], the “binding to soluble αvβ3” value is given as “reduced the binding”.

B3: R42E: sPLA2-IIA mutant, Arg-42 mutated to Glu (protein)
chain: NLVNFHRMIKLTTGKEAALSYGFYGCHCGVGGRGSPKDATDECCVTHDCCYKRLEKRGCGTKFLSYKFSNSGSRITCAKQDSCRSQLCECDKAAATCFARNKTTYNKKYQYYSNKHCRGSTPRC
modifications: left off: small tags and cut ends
notes: sPLA2-IIA mutant, Arg-42 mutated to Glu
For B3, the “binding to soluble αvβ3” value in test [3] is on record as “little or no effect”.

B4: R53E: sPLA2-IIA mutant, Arg-53 mutated to Glu (protein)
chain: NLVNFHRMIKLTTGKEAALSYGFYGCHCGVGGRGSPKDATDRCCVTHDCCYKELEKRGCGTKFLSYKFSNSGSRITCAKQDSCRSQLCECDKAAATCFARNKTTYNKKYQYYSNKHCRGSTPRC
modifications: left off: small tags and cut ends
notes: sPLA2-IIA mutant, Arg-53 mutated to Glu
B4: the “binding to soluble αvβ3” value in test [3] is given as “little or no effect”.

B5: R74E/R100E: integrin-binding-defective combined mutant of sPLA2-IIA, Arg-74 and Arg-100 mutated to Glu (protein)
chain: NLVNFHRMIKLTTGKEAALSYGFYGCHCGVGGRGSPKDATDRCCVTHDCCYKRLEKRGCGTKFLSYKFSNSGSEITCAKQDSCRSQLCECDKAAATCFAENKTTYNKKYQYYSNKHCRGSTPRC
modifications: left off: small tags and cut ends
As for B5, in [7], the “proliferation of monocytic U937 cells” value was “did not”. In addition, the “ERK1/2 activation in U937 cells” value in [8] is recorded as “did not induce”. Further, the “proliferation of αvβ3-K562 cells” value in test [9] is “did not induce proliferation”. The “proliferation of α4-K562 cells” value in [10] is “did not induce proliferation”. Also, in test [3], the “binding to soluble αvβ3” value was “effectively reduced the binding”. Besides, the PLA2 activity result in test [11] is given as “did not affect PLA2 activity”.

B6: H47Q: catalytically inactive mutant of sPLA2-IIA, His-47 mutated to Gln (protein)
chain: NLVNFHRMIKLTTGKEAALSYGFYGCHCGVGGRGSPKDATDRCCVTQDCCYKRLEKRGCGTKFLSYKFSNSGSRITCAKQDSCRSQLCECDKAAATCFARNKTTYNKKYQYYSNKHCRGSTPRC
modifications: left off: small tags and cut ends
Consider B6, for which the “proliferation of monocytic U937 cells” value in test [7] is reported as “induced robust proliferation”. Further, the “ERK1/2 activation in U937 cells” value in [8] is “induced”. Moreover, the “proliferation of αvβ3-K562 cells” value in test [9] is on record as “induced proliferation”. In test [10], the “proliferation of α4-K562 cells” value is listed as “induced proliferation”. Besides, in test [3], the “binding to soluble αvβ3” value is “did not affect the binding”. Moreover, the PLA2 activity result in test [11] was “reduced PLA2 activity”.

B7: R74E: sPLA2-IIA mutant, Arg-74 mutated to Glu (protein)
chain: NLVNFHRMIKLTTGKEAALSYGFYGCHCGVGGRGSPKDATDRCCVTHDCCYKRLEKRGCGTKFLSYKFSNSGSEITCAKQDSCRSQLCECDKAAATCFARNKTTYNKKYQYYSNKHCRGSTPRC
modifications: left off: small tags and cut ends
notes: sPLA2-IIA mutant, Arg-74 mutated to Glu
In the case of B7, in [3], the “binding to soluble αvβ3” value is recorded as “reduced the binding”.

B8: sPLA2-IIA R74E/R100E mutant (integrin-binding-defective) (enzyme, human, UniProt P14555 21-144, looked up)
chain: NLVNFHRMIKLTTGKEAALSYGFYGCHCGVGGRGSPKDATDRCCVTHDCCYKRLEKRGCGTKFLSYKFSNSGSEITCAKQDSCRSQLCECDKAAATCFAENKTTYNKKYQYYSNKHCRGSTPRC
notes: mature; the printed positions appear to count on the mature protein; not shown: N-terminal vector-encoded residues with His tag from the PET28a/amp vector
As to B8, the Kd in test [6] turned out to be 1080 nM.
